Test results reported in patent US20230265183A1 (MABWELL SHANGHAI BIOSCIENCE, published 2023).
Like-named read-outs stand apart in the source and are kept apart here.

Assays:
[1] = target: T1, human Nectin-4(C-6His), Novoprotein Cat# CJ19 (human, UniProt Q96NY8 32-349); test: ELISA, plate coated with 1 µg/ml human Nectin-4(C-6His), HRP-labelled secondary antibody, absorbance at 450 nm
T1 construct: Bought protein; also called recombinant human Nectin4 protein; antigen Nectin-4
T1 sequence: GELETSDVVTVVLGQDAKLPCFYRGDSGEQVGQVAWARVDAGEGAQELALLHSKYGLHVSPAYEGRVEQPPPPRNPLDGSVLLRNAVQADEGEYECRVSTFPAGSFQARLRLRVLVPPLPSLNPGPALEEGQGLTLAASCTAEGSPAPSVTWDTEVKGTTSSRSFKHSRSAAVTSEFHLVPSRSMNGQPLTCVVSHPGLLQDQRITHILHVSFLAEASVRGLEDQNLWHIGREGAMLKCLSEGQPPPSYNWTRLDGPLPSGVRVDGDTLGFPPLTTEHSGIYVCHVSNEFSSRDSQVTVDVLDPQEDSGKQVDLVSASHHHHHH
Experimental: Plates were coated with 1 µg/ml of the antigens and incubated at 4° C. overnight; next, antibodies serially diluted were added into the plates. Finally, the HRP-labeled secondary antibody was added, and absorbance at 450 nm was detected.

His-tagged human NECTIN4 [2] = target: T2, His-tagged human NECTIN4 (human, UniProt Q96NY8 32-349); test: ELISA, antibody without cyno serum, plate coated with 0.2 µg/ml antigen, HRP goat anti-human IgG, OD450. The sheet does not say which of the two plates of Example 13 is drawn
T2 construct: Antigen of the BIAcore assay; also called antigen; recombinant NECTIN4 protein; not shown: His tag
T2 sequence: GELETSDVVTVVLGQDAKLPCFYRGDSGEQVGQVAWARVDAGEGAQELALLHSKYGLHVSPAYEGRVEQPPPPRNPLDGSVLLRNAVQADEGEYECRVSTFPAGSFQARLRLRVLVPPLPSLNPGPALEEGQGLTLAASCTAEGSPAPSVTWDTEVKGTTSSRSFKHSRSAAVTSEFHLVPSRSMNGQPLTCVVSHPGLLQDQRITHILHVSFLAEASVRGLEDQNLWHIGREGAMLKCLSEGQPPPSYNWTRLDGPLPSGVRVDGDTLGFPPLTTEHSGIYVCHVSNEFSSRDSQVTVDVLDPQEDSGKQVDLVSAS

human Nectin-4 [3] = target: T3, human Nectin-4 (human, UniProt Q96NY8 32-510); test: FACS on BT474 cells
T3 construct: whole, on cells; Cell-surface target of the FACS, endocytosis and proliferation assays (CHO-huNectin4 S8 cells, BT474 cells); the assay field says which cells; also called huNectin4; PVRL4
T3 sequence (looked up): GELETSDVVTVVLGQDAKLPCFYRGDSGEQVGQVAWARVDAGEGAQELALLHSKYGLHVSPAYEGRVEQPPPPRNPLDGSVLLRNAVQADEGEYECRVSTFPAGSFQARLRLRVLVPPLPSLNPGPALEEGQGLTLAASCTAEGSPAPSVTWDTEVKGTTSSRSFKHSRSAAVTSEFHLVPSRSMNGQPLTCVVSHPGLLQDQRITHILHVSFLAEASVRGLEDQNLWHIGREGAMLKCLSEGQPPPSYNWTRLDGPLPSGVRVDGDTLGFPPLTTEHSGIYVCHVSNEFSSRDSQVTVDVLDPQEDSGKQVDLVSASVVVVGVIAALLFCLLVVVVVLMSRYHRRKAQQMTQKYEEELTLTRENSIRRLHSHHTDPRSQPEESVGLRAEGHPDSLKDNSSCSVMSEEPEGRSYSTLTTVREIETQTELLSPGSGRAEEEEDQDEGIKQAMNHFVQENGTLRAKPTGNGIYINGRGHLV
Experimental: (§1) The solutions of different concentrations were added to 384-well plates, 10 µl per well.
(§2) BT474 cells (breast cancer cells) expressing Nectin-4 on the cell surface were collected by centrifugation at 100 g at room temperature for 5 minutes, and then the cells were washed with PBS containing 0.5% BSA once and were centrifuged at 100 g at room temperature for 5 minutes. […] After incubation at 4° C. for 1 hour, fluorescently labeled goat anti-human IgG secondary antibody was added. After continued incubation at 4° C. for 1 hour, mean fluorescence readings of the cell populations were analyzed by a flow cytometer.

human Nectin-4 [4] = target: T3, human Nectin-4; test: FACS on BT474 cells; remark: listed apart in the source
Experimental: as §1, §2
The experiment results of the binding of engineered humanized molecules of the present disclosure to BT474 cells by FACS assay are shown in panels 3B and 3C in FIG. 3 and Tables 6 and 7.

human Nectin-4 [5] = target: T3, human Nectin-4; test: FACS on BT474 cells; remark: listed apart in the source
Experimental: as §1, §2

human Nectin-4 [6] = target: T3, human Nectin-4; test: cell-based or functional assay
His-tagged human NECTIN4 [7] = target: T2, His-tagged human NECTIN4; test: SPR (BIAcore S200), antigen on CAP chip, antibody as analyte, 1:1 fit
Experimental: Interactions between the antibodies and the antigen were measured using a BIAcore instrument S200 from GE. Referring to the instructions provided in Biotin Capture Kit from GE Healthcare, the analytical channel and the control sample channel on CAP sensor chip were first coupled with antigen i.e. His-tagged human NECTIN4, then samples containing antibodies (diluted 3-fold from an initial concentration of 20 nM respectively and solutions of each antibody of 8 concentrations were obtained totally, and the concentration 0.741 nM was set to be repeated) were allowed to flow through both the analytical channel and the sample channel, and the photoreactions upon antibody-antigen binding were measured. Association constant Kon and dissociation constant Koff and affinity constant KD of each antibody were finally obtained by instrument software fitting (1:1 binding mode) analysis.

His-tagged human NECTIN4 [8] = target: T2, His-tagged human NECTIN4; test: ELISA, antibody without cyno serum, plate coated with 0.2 µg/ml antigen, HRP goat anti-human IgG, OD450. The sheet does not say which of the two plates of Example 13 is drawn; remark: listed apart in the source

B1: Enfortumab (antibody, human IgG1, kappa, V domains shown)
VH: EVQLVESGGGLVQPGGSLRLSCAASGFTFSSYNMNWVRQAPGKGLEWVSYISSSSSTIYYADSVKGRFTISRDNAKNSLSLQMNSLRDEDTAVYYCARAYYYGMDVWGQGTTVTVSS
VL: DIQMTQSPSSVSASVGDRVTITCRASQGISGWLAWYQQKPGKAPKFLIYAASTLQSGVPSRFSGSGSGTDFTLTISSLQPEDFATYYCQQANSFPPTFGGGTKVEIKR
notes: also called control antibody Enfortumab
EC50 (read off the curve) [1]: ~0.1 µg/mL
EC50 (read off the curve) (His-tagged human NECTIN4 [2]): ~0.1 µg/mL
EC50 (human Nectin-4 [3]): 98.8 µg/mL
EC50 (human Nectin-4 [4]): 57.2 µg/mL
EC50 (human Nectin-4 [5]): 29.6 µg/mL
EC50 (ng/ml), inhibition of proliferation of BT474 cells (human Nectin-4 [6]): 3.37 ng/mL
Percentage of cell killing at the highest concentration (human Nectin-4 [6]): 43.3%
Kd (His-tagged human NECTIN4 [7]): 4.94 nM

B2: 42D20 hz10 (antibody, V domains shown)
VH: QVQLQESGPGLVKPSETLSLTCTVSGFSLIDYGVSWIRQPPGKGLEWIGVIWGDGKIYYNSVLKSRVTISKDNSKSQVSLKLSSVTAADTAVYYCAKQGGLLFYAMDYWGQGTLVTVSS
VL: DIVMTQSPDSLAVSLGERATINCKSSQSLLNSYSQKNYLAWYQQKPGQPPKLLIYFASTRESGVPDRFSGSGSGTDFTLTISSLQAEDVAVYYCQQHYNTPFTFGAGTKLELKR
notes: Humanized
EC50 (read off the curve) [1]: ~0.09 µg/mL
EC50 (read off the curve) (His-tagged human NECTIN4 [8]): ~0.1 µg/mL
Kd (His-tagged human NECTIN4 [7]): 1.14 nM
